Assays:
[1] = test system: HeLa Kyoto; assay: melting temperature (median over replicates), in situ; higher = more thermally stable
[2] = test system: HeLa Kyoto; assay: solubility change mitosis vs G1/S (difference of NP-40 vs SDS log2 ratios) (log2 ratio difference); higher = more soluble in mitosis
[3] = test system: HeLa Kyoto; assay: thermal stability score vs G1/S (z-score of summed log2 fold changes over temperatures); higher = more thermally stable than in G1/S
[4] = test system: HeLa Kyoto; assay: solubility in G1/S (NP-40 vs SDS abundance) (log2 ratio); higher = more soluble; settings: cell cycle stage: G1/S
[5] = cell cycle stage: early G1 (4.5 h after nocodazole release)
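For melting temperature (median over replicates), in situ in this document: HeLa Kyoto cells synchronized by double thymidine or nocodazole block, proteins quantified by TMT10plex mass spectrometry, three independent biological replicates.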
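For solubility change mitosis vs G1/S (difference of NP-40 vs SDS log2 ratios) in this document: synchronized HeLa Kyoto cells (double thymidine block for G1/S, nocodazole release for mitosis), protein amounts in NP-40 versus SDS lysates quantified by mass spectrometry, three biological replicates.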
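For solubility in G1/S (NP-40 vs SDS abundance) in this document: HeLa Kyoto cells arrested at G1/S by double thymidine block, proteins quantified by TMT10plex mass spectrometry in mild NP-40 versus SDS extracts, three biological replicates.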
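For thermal stability score vs G1/S (z-score of summed log2 fold changes over temperatures) in this document: synchronized HeLa Kyoto cells, proteins quantified by TMT10plex mass spectrometry, three biological replicates, mitosis taken 0.5 h after nocodazole release, G1/S directly after double thymidine block.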

Substance	melting temperature ([1]; cell cycle stage: G1/S) [°C]	melting temperature ([1]; cell cycle stage: mitosis) [°C]	solubility change mitosis (log2) [2]	thermal stability score [3, 5]	thermal stability score ([3]; cell cycle stage: mitosis)	solubility in G1/S (log2) [4]
MATIPDWKLQLLARRRQEEASVRGREKAERERLSQMPAWKRGLLERRRAKLGLSPGEPSPVLGTVEAGPPDPDESAVLLEAIGPVHQNRFIRQERQQQQQQQQRSEELLAERKPGPLEARERRPSPGEMRDQSPKGRESREERLSPRETRERRLGIGGAQELSLRPLEARDWRQSPGEVGDRSSRLSEAWKWRLSPGETPERSLRLAESREQSPRRKEVESRLSPGESAYQKLGLTEAHKWRPDSRESQEQSLVQLEATEWRLRSGEERQDYSEECGRKEEWPVPGVAPKETAELSETLTREAQGNSSAGVEAAEQRPVEDGERGMKPTEGWKWTLNSGKAREWTPRDIEAQTQKPEPPESAEKLLESPGVEAGEGEAEKEEAGAQGRPLRALQNCCSVPSPLPPEDAGTGGLRQQEEEAVELQPPPPAPLSPPPPAPTAPQPPGDPLMSRLFYGVKAGPGVGAPRRSGHTFTVNPRRSVPPATPATPTSPATVDAAVPGAGKKRYPTAEEILVLGGYLRLSRSCLAKGSPERHHKQLKISFSETALETTYQYPSESSVLEELGPEPEVPSAPNPPAAQPDDEEDEEELLLLQPELQGGLRTKALIVDESCRR [PPP1R18]	52.5	52	0.428	0.778	0.67	-0.53
MVWKVAVFLSVALGIGAVPIDDPEDGGKHWVVIVAGSNGWYNYRHQADACHAYQIIHRNGIPDEQIVVMMYDDIAYSEDNPTPGIVINRPNGTDVYQGVPKDYTGEDVTPQNFLAVLRGDAEAVKGIGSGKVLKSGPQDHVFIYFTDHGSTGILVFPNEDLHVKDLNETIHYMYKHKMYRKMVFYIEACESGSMMNHLPDNINVYATTAANPRESSYACYYDEKRSTYLGDWYSVNWMEDSDVEDLTKETLHKQYHLVKSHTNTSHVMQYGNKTISTMKVMQFQGMKRKASSPVPLPPVTHLDLTPSPDVPLTIMKRKLMNTNDLEESRQLTEEIQRHLDARHLIEKSVRKIVSLLAASEAEVEQLLSERAPLTGHSCYPEALLHFRTHCFNWHSPTYEYALRHLYVLVNLCEKPYPLHRIKLSMDHVCLGHY [LGMN]	53.8	54.2	-0.0973	5.08	5.7	0.416
MSRHEGVSCDACLKGNFRGRRYKCLICYDYDLCASCYESGATTTRHTTDHPMQCILTRVDFDLYYGGEAFSVEQPQSFTCPYCGKMGYTETSLQEHVTSEHAETSTEVICPICAALPGGDPNHVTDDFAAHLTLEHRAPRDLDESSGVRHVRRMFHPGRGLGGPRARRSNMHFTSSSTGGLSSSQSSYSPSNREAMDPIAELLSQLSGVRRSAGGQLNSSGPSASQLQQLQMQLQLERQHAQAARQQLETARNATRRTNTSSVTTTITQSTATTNIANTESSQQTLQNSQFLLTRLNDPKMSETERQSMESERADRSLFVQELLLSTLVREESSSSDEDDRGEMADFGAMGCVDIMPLDVALENLNLKESNKGNEPPPPPL [KCMF1]	51.7		0.00437	-1.31	-1.41	-0.415
CHD3	46.5	49.1	0.14	0.67	1.73	-0.643
MAPLGGAPRLVLLFSGKRKSGKDFVTEALQSRLGADVCAVLRLSGPLKEQYAQEHGLNFQRLLDTSTYKEAFRKDMIRWGEEKRQADPGFFCRKIVEGISQPIWLVSDTRRVSDIQWFREAYGAVTQTVRVVALEQSRQQRGWVFTPGVDDAESECGLDNFGDFDWVIENHGVEQRLEEQLENLIEFIRSRL [PMVK]	46.6	47.8	-0.0243	1.41	1.71	-0.0155
MLSEVLLVSAPGKVILHGEHAVVHGKVALAVSLNLRTFLRLQPHSNGKVDLSLPNIGIKRAWDVARLQSLDTSFLEQGDVTTPTSEQVEKLKEVAGLPDDCAVTERLAVLAFLYLYLSICRKQRALPSLDIVVWSELPPGAGLGSSAAYSVCLAAALLTVCEEIPNPLKDGDCVNRWTKEDLELINKWAFQGERMIHGNPSGVDNAVSTWGGALRYHQGKISSLKRSPALQILLTNTKVPRNTRALVAGVRNRLLKFPEIVAPLLTSIDAISLECERVLGEMGEAPAPEQYLVLEELIDMNQHHLNALGVGHASLDQLCQVTRARGLHSKLTGAGGGGCGITLLKPGLEQPEVEATKQALTSCGFDCLETSIGAPGVSIHSATSLDSRVQQALDGL [MVK]	53.8	54.3	0.006	-0.0917	0.34	0.173
MAGAAAESGRELWTFAGSRDPSAPRLAYGYGPGSLRELRAREFSRLAGTVYLDHAGATLFSQSQLESFTSDLMENTYGNPHSQNISSKLTHDTVEQVRYRILAHFHTTAEDYTVIFTAGSTAALKLVAEAFPWVSQGPESSGSRFCYLTDSHTSVVGMRNVTMAINVISTPVRPEDLWSAEERSASASNPDCQLPHLFCYPAQSNFSGVRYPLSWIEEVKSGRLHPVSTPGKWFVLLDAASYVSTSPLDLSAHQADFVPISFYKIFGFPTGLGALLVHNRAAPLLRKTYFGGGTASAYLAGEDFYIPRQSVAQRFEDGTISFLDVIALKHGFDTLERLTGGMENIKQHTFTLAQYTYVALSSLQYPNGAPVVRIYSDSEFSSPEVQGPIINFNVLDDKGNIIGYSQVDKMASLYNIHLRTGCFCNTGACQRHLGISNEMVRKHFQAGHVCGDNMDLIDGQPTGSVRISFGYMSTLDDVQAFLRFIIDTRLHSSGDWPVPQAHADTGETGAPSADSQADVIPAVMGRRSLSPQEDALTGSRVWNNSSTVNAVPVAPPVCDVARTQPTPSEKAAGVLEGALGPHVVTNLYLYPIKSCAAFEVTRWPVGNQGLLYDRSWMVVNHNGVCLSQKQEPRLCLIQPFIDLRQRIMVIKAKGMEPIEVPLEENSERTQIRQSRVCADRVSTYDCGEKISSWLSTFFGRPCHLIKQSSNSQRNAKKKHGKDQLPGTMATLSLVNEAQYLLINTSSILELHRQLNTSDENGKEELFSLKDLSLRFRANIIINGKRAFEEEKWDEISIGSLRFQVLGPCHRCQMICIDQQTGQRNQHVFQKLSESRETKVNFGMYLMHASLDLSSPCFLSVGSQVLPVLKENVEGHDLPASEKHQDVTS [MOCOS]	53.3	53.6	-0.13	-1.28	-1.96	-0.123
MAAASAVSVLLVAAERNRWHRLPSLLLPPRTWVWRQRTMKYTTATGRNITKVLIANRGEIACRVMRTAKKLGVQTVAVYSEADRNSMHVDMADEAYSIGPAPSQQSYLSMEKIIQVAKTSAAQAIHPGCGFLSENMEFAELCKQEGIIFIGPPPSAIRDMGIKSTSKSIMAAAGVPVVEGYHGEDQSDQCLKEHARRIGYPVMIKAVRGGGGKGMRIVRSEQEFQEQLESARREAKKSFNDDAMLIEKFVDTPRHVEVQVFGDHHGNAVYLFERDCSVQRRHQKIIEEAPAPGIKSEVRKKLGEAAVRAAKAVNYVGAGTVEFIMDSKHNFCFMEMNTRLQVEHPVTEMITGTDLVEWQLRIAAGEKIPLSQEEITLQGHAFEARIYAEDPSNNFMPVAGPLVHLSTPRADPSTRIETGVRQGDEVSVHYDPMIAKLVVWAADRQAALTKLRYSLRQYNIVGLHTNIDFLLNLSGHPEFEAGNVHTDFIPQHHKQLLLSRKAAAKESLCQAALGLILKEKAMTDTFTLQAHDQFSPFSSSSGRRLNISYTRNMTLKDGKNNVAIAVTYNHDGSYSMQIEDKTFQVLGNLYSEGDCTYLKCSVNGVASKAKLIILENTIYLFSKEGSIEIDIPVPKYLSSVSSQETQGGPLAPMTGTIEKVFVKAGDKVKAGDSLMVMIAMKMEHTIKSPKDGTVKKVFYREGAQANRHTPLVEFEEEESDKRESE [MCCC1]	51.4	51.3	-0.125	-0.414	-0.17	-0.0598
MANMQGLVERLERAVSRLESLSAESHRPPGNCGEVNGVIAGVAPSVEAFDKLMDSMVAEFLKNSRILAGDVETHAEMVHSAFQAQRAFLLMASQYQQPHENDVAALLKPISEKIQEIQTFRERNRGSNMFNHLSAVSESIPALGWIAVSPKPGPYVKEMNDAATFYTNRVLKDYKHSDLRHVDWVKSYLNIWSELQAYIKEHHTTGLTWSKTGPVASTVSAFSVLSSGPGLPPPPPPLPPPGPPPLFENEGKKEESSPSRSALFAQLNQGEAITKGLRHVTDDQKTYKNPSLRAQGGQTQSPTKSHTPSPTSPKSYPSQKHAPVLELEGKKWRVEYQEDRNDLVISETELKQVAYIFKCEKSTIQIKGKVNSIIIDNCKKLGLVFDNVVGIVEVINSQDIQIQVMGRVPTISINKTEGCHIYLSEDALDCEIVSAKSSEMNILIPQDGDYREFPIPEQFKTAWDGSKLITEPAEIMA [CAP2]	51.3	50.3	-0.179	-1.54	-2.12	0.136
MEPLSHRGLPRLSWIDTLYSNFSYGTDEYDGEGNEEQKGPPEGSETMPYIDESPTMSPQLSARSQGGGDGVSPTPPEGLAPGVEAGKGLEMRKLVLSGFLASEEIYINQLEALLLPMKPLKATATTSQPVLTIQQIETIFYKIQDIYEIHKEFYDNLCPKVQQWDSQVTMGHLFQKLASQLGVYKAFVDNYKVALETAEKCSQSNNQFQKISEELKVKGPKDSKDSHTSVTMEALLYKPIDRVTRSTLVLHDLLKHTPVDHPDYPLLQDALRISQNFLSSINEDIDPRRTAVTTPKGETRQLVKDGFLVEVSESSRKLRHVFLFTDVLLCAKLKKTSAGKHQQYDCKWYIPLADLVFPSPEESEASPQVHPFPDHELEDMKMKISALKSEIQKEKANKGQSRAIERLKKKMFENEFLLLLNSPTIPFRIHNRNGKSYLFLLSSDYERSEWREAIQKLQKKDLQAFVLSSVELQVLTGSCFKLRTVHNIPVTSNKDDDESPGLYGFLHVIVHSAKGFKQSANLYCTLEVDSFGYFVSKAKTRVFRDTAEPKWDEEFEIELEGSQSLRILCYEKCYDKTKVNKDNNEIVDKIMGKGQIQLDPQTVETKNWHTDVIEMNGIKVEFSMKFTSRDMSLKRTPSKKQTGVFGVKISVVTKRERSKVPYIVRQCVEEVEKRGIEEVGIYRISGVATDIQALKAVFDANNKDILLMLSDMDINAIAGTLKLYFRELPEPLLTDRLYPAFMEGIALSDPAAKENCMMHLLRSLPDPNLITFLFLLEHLKRVAEKEPINKMSLHNLATVFGPTLLRPSEVESKAHLTSAADIWSHDVMAQVQVLLYYLQHPPISFAELKRNTLYFSTDV [ABR]	48.8	49.1	-0.111	0.864	1.73	-0.0712
MLHFNRCHHLKKITQKCFSSIHVKTDKHAQRFLSRTFALAELRKSWYSTHSLVGDKNIILMGPPGAGKTTVGRIIGQKLGCCVIDVDDDILEKTWNMSVSEKLQDVGNEQFLEEEGKAVLNFSASGSVISLTGSNPMHDASMWHLKKNGIIVYLDVPLLDLICRLKLMKTDRIVGQNSGTSMKDLLKFRRQYYKKWYDARVFCESGASPEEVADKVLNAIKRYQDVDSETFISTRHVWPEDCEQKVSAKFFSEAVIEGLASDGGLFVPAKEFPKLSCGEWKSLVGATYVERAQILLERCIHPADIPAARLGEMIETAYGENFACSKIAPVRHLSGNQFILELFHGPTGSFKDLSLQLMPHIFAHCIPPSCNYMILVATSGDTGSAVLNGFSRLNKNDKQRIAVVAFFPENGVSDFQKAQIIGSQRENGWAVGVESDFDFCQTAIKRIFNDSDFTGFLTVEYGTILSSANSINWGRLLPQVVYHASAYLDLVSQGFISFGSPVDVCIPTGNFGNILAAVYAKMMGIPIRKFICASNQNHVLTDFIKTGHYDLRERKLAQTFSPSIDILKSSNLERHLHLMANKDGQLMTELFNRLESQHHFQIEKALVEKLQQDFVADWCSEGECLAAINSTYNTSGYILDPHTAVAKVVADRVQDKTCPVIISSTAHYSKFAPAIMQALKIKEINETSSSQLYLLGSYNALPPLHEALLERTKQQEKMEYQVCAADMNVLKSHVEQLVQNQFI [THNSL1]	52.5	52.7	-0.0759	0.435	-0.697	-0.0605

Source: the supplement of paper PMC5998384
